Measured values taken from patent US20180016352A1 (published 2018).

Legend:
Assay in all cases: indirect ELISA, recombinant receptor coated, anti-c-myc HRP
recombinant Mesothelin = recombinant Mesothelin (UniProt Q13421 296-580, limits assumed)
Procedure: (§1) The target binding of the BsAbs was evaluated by indirect ELISA methods using PEG polymer and recombinant target proteins immobilized on ELISA plates. Individual wells of a 96 well Maxisorp plate were coated with 100 μL of 10 μg/mL of polymer (polyethylene glycol monomethyl ether methacrylate) or 10 μg/mL of target recombinant receptor (EphA2, VEGFR2, Mesothelin and EGFR) for 16-20 hr at 4C. PEG and target receptors were diluted in phosphate buffered saline (PBS pH 7.4). […] The blocker was decanted and 100 μL of BsAb, either in cell culture supernatant or purified protein stored in PBS, was added to each well. The BsAb was incubated for 2 hr and then decanted. The wells were washed five times manually in PBST and 100 μL of HRP labeled anti-c-myc antibody diluted 1/5000 in blocker was added to each well and incubated for 30 mins. The c-myc antibody was then decanted and the wells washed again five times manually with PBST. One hundred microliters of TMB was added to all wells and incubated for 10-15 mins or until adequate color development was identified. The TMB colorimetric reaction was neutralized by adding 100 μL of 2M sulfuric acid. The colorimetric reactions in each well was analyzed at an absorbance of 450 nm using the Spectramax plate reader.

recombinant EGFR = biological target: T1, recombinant EGFR (UniProt P00533 25-645, limits assumed)
T1 construct: It may be the same reagent as rEGFR-hFc; also called rEGFR
Procedure: as §1

[1] = biological target: recombinant EphA2 receptor (UniProt P29317 25-534, limits assumed)
Procedure: as §1

Measured: binding result

Chain of recombinant Mesothelin (Q13421 other isoform, or with tags, fused parts or gaps limits assumed): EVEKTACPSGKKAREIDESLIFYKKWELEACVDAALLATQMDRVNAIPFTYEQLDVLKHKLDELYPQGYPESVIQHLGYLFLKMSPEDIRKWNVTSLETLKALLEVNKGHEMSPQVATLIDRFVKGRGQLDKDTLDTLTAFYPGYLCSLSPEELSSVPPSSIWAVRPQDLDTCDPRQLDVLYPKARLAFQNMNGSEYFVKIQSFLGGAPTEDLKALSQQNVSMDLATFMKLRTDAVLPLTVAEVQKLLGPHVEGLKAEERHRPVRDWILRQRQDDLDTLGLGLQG
Chain of recombinant EphA2 receptor (P29317 25-534 limits assumed): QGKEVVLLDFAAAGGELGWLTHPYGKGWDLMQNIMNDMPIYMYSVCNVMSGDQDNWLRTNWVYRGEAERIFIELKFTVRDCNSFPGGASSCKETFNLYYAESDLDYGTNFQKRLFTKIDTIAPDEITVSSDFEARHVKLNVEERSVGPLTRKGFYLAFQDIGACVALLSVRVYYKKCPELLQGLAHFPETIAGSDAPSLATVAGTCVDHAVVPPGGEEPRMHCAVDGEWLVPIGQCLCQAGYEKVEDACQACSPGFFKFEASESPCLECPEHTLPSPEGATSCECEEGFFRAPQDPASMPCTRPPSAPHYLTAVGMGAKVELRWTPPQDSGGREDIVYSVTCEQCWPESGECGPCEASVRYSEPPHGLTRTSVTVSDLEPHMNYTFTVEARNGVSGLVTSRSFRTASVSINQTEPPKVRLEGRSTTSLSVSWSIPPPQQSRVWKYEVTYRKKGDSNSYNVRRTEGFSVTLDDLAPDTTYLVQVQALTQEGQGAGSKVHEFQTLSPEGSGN

B1: VEGF-15.2 (BsAb targeting VEGFR2) (other)
chain: HHHHHHEVVKFMDVYQRSYCHPIETLVDIFQEYPDEIEYIFKPSCVPLMRCGGCCNDEGLECVPTEESNITMQIMRIKPHQGQHIGEMSFLQHNKCECRPKKDGSTSGSGKSSEGKGEVVKFMDVYQRSYCHPIETLVDIFQEYPDEIEYIFKPSCVPLMRCGGCCNDEGLECVPTEESNITMQIMRIKPHQGQHIGEMSFLQHNKCECRPKKDSGGGGSEVKLEESGGGLVQPGGSMKLSCVASGFTFSNYWMNWVRQSPEKGLEWVTEIRSKSNNYATHYAESVKGRFTISRDDSKGSVYLQMNNLRAEDTGIYYCSNRYYWGQGTLVTVSAGGGGSGGGGSGGGGSDIVMTQSHKFMSTSVRDRVTITCKASQDVNTSVAWYQQKPGQSPKLVIYWASTRHTGVPDRFTGSGSGTDFTLTISNVQSEDLADYFCLQYINYPYTFGGGTKLEIKEQKLISEEDLN
no binding: recombinant Mesothelin | recombinant EGFR | [1]
